How the values were obtained:
EAE in Lewis rats [1] = assay: Treatment of ongoing EAE after disease onset; format: in vivo
EAE in Lewis rats [2] = assay: Prevention of EAE by pretreatment before encephalitogenic challenge; format: in vivo
[3] = Table 6 Experiment 1, s.c. day 9 (1 nmole), day 10 (1 nmole), day 12 (0.5 nmole) after DHFR-NAg in CFA day 0
[4] = Table 6 Experiment 2, 1 nmole s.c. on days 9, 10, 12, and 14 after DHFR-NAg in CFA day 0
[5] = Table 6 Experiments 1 & 2 compiled, treatment from day 9 after onset
[6] = Table 7 Experiment 1, 1 nmole s.c. days 10, 11, and 13, severe EAE = scores from 1.0 to 3.0
[7] = Table 7 Experiment 1, 1 nmole s.c. in saline days 10, 11, and 13, IFNβ + NAg as mixture
[8] = Table 7 Experiment 2, 1 nmole s.c. days 9, 10, 12, and 14, severe EAE = scores from 1.0 to 3.0
[9] = Table 7 Experiment 2, 1 nmole s.c. in saline days 9, 10, 12, and 14, IFNβ + NAg as mixture
[10] = Table 7 Experiment 3, 1 nmole s.c. days 9, 10, and 12, severe EAE = scores from 1.0 to 3.0
[11] = Table 7 Experiment 3, 1 nmole s.c. in saline days 9, 10, and 12, IFNβ + NAg as mixture
[12] = Table 7 Experiments 1-3 compiled, 1 nmole s.c. after onset
[13] = Table 7 Experiments 1-3 compiled, severe EAE = scores from 1.0 to 3.0
[14] = Table 3, baculovirus-derived, 1 nmole s.c. days −21, −14, −7, challenge day 0, severe = EP or P
[15] = Table 3, baculovirus-derived, 1 nmole s.c. in saline days −21, −14, −7, challenge 50 ug DHFR-NAg in CFA day 0
[16] = Table 4 Exp. 1 & 2 combined, HEK293-derived, 1 nmole days −21, −14, −7, challenge day 0
[17] = Table 4 Exp. 1, HEK293-derived, 1 nmole in saline days −21, −14, −7, challenge DHFR-NAg in CFA day 0
[18] = Table 4 Exp. 2, HEK293-derived, 1 nmole in saline days −21, −14, −7, challenge DHFR-NAg in CFA day 0
[19] = Table 5 Exp 1-2 compiled, 1 nmole s.c. days −21, −14, −7 (IFNβ + NAg: separate injections), challenge day 0
[20] = Table 5 Exp 1, 1 nmole s.c. in saline days −21, −14, −7 (IFNβ + NAg: separate injections <0.5 cm apart), challenge DHFR-NAg in CFA day 0
[21] = Table 5 Exp 2, 1 nmole s.c. in saline days −21, −14, −7 (IFNβ + NAg: separate injections <0.5 cm apart), challenge DHFR-NAg in CFA day 0

B1: IFNβ-NAg: Fusion protein: rat IFNβ, enterokinase linker (GDDDDKG), encephalitogenic 73-87 peptide of guinea pig MBP, C-terminal 6-histidine tag (protein)
chain: IDYKQLQFRQSTSIRTCQKLLRQLNGRLNLSYRTDFKIPMEVMHPSQMEKSYTAFAIQVMLQNVFLVFRSNFSSTGWNETIVESLLDELHQQTELLEIILKEKQEERLTWVTSTTTLGLKSYYWRVQRYLKDKKYNSYAWMVVRAEVFRNFSIILRLNRNFQNGDDDDKGPQKSQRSQDENPVVHHHHHH
- % mean maximal weight loss (EAE in Lewis rats [1]; [3]): 3.8 ± 2.0%
- Incidence of severe EAE (EAE in Lewis rats [1]; [3]): 1 of 6
- Mean # days with severe EAE (EAE in Lewis rats [1]; [3]): 0.1 ± 0.2 days
- Mean cum. score (EAE in Lewis rats [1]; [3]): 3.4 ± 2.1
- Mean maximal score (EAE in Lewis rats [1]; [3]): 0.7 ± 0.6
- Median cum. score (EAE in Lewis rats [1]; [3]): 3.5
- Median maximal score (EAE in Lewis rats [1]; [3]): 0.5
- % mean maximal weight loss (EAE in Lewis rats [1]; [4]): 6.4 ± 5.0%
- Incidence of severe EAE (EAE in Lewis rats [1]; [4]): 1 of 5
- Mean # days with severe EAE (EAE in Lewis rats [1]; [4]): 0.1 ± 0.2 days
- Mean cum. score (EAE in Lewis rats [1]; [4]): 2.7 ± 1.5
- Mean maximal score (EAE in Lewis rats [1]; [4]): 0.7 ± 0.8
- Median cum. score (EAE in Lewis rats [1]; [4]): 2.3
- Median maximal score (EAE in Lewis rats [1]; [4]): 0.3
- % mean maximal weight loss (EAE in Lewis rats [1]; [5]): 5.0 ± 3.7%
- Incidence of severe EAE (EAE in Lewis rats [1]; [5]): 2 of 11
- Mean # days with severe EAE (EAE in Lewis rats [1]; [5]): 0.1 ± 0.2 days
- Mean cum. score (EAE in Lewis rats [1]; [5]): 3.1 ± 1.8
- Mean maximal score (EAE in Lewis rats [1]; [5]): 0.7 ± 0.7
- Median cum. score (EAE in Lewis rats [1]; [5]): 2.8
- Median maximal score (EAE in Lewis rats [1]; [5]): 0.5
- Incidence of severe EAE (EAE in Lewis rats [1]; [6]): 0 of 5
- Mean # days with severe EAE (A-P) (EAE in Lewis rats [1]; [6]): 0.3 ± 0.7 days
- Mean cum. score (EAE in Lewis rats [1]; [7]): 1.7 ± 0.9
- Mean maximal score (EAE in Lewis rats [1]; [7]): 0.4 ± 0.1
- Median cum. score (EAE in Lewis rats [1]; [7]): 1.8
- Median maximal score (EAE in Lewis rats [1]; [7]): 0.3
- Incidence of severe EAE (EAE in Lewis rats [1]; [8]): 1 of 6
- Mean # days with severe EAE (A-P) (EAE in Lewis rats [1]; [8]): 0.1 ± 0.2 days
- Mean cum. score (EAE in Lewis rats [1]; [9]): 1.0 ± 0.7
- Mean maximal score (EAE in Lewis rats [1]; [9]): 0.6 ± 0.7
- Median cum. score (EAE in Lewis rats [1]; [9]): 0.8
- Median maximal score (EAE in Lewis rats [1]; [9]): 0.4
- Incidence of severe EAE (EAE in Lewis rats [1]; [10]): 0 of 7
- Mean # days with severe EAE (A-P) (EAE in Lewis rats [1]; [10]): 0.0 ± 0.0 days
- Mean cum. score (EAE in Lewis rats [1]; [11]): 1.7 ± 0.6
- Mean maximal score (EAE in Lewis rats [1]; [11]): 0.4 ± 0.1
- Median cum. score (EAE in Lewis rats [1]; [11]): 1.8
- Median maximal score (EAE in Lewis rats [1]; [11]): 0.3
- Mean cum. score (EAE in Lewis rats [1]; [12]): 1.4 ± 0.8
- Mean maximal score (EAE in Lewis rats [1]; [12]): 0.4 ± 0.4
- Median cum. score (EAE in Lewis rats [1]; [12]): 1.4
- Median maximal score (EAE in Lewis rats [1]; [12]): 0.3
- Incidence of severe EAE (EAE in Lewis rats [1]; [13]): 1 of 18
- Mean # days with severe EAE (A-P) (EAE in Lewis rats [1]; [13]): 0.1 ± 0.4 days
- EAE-associated weight loss, mean (EAE in Lewis rats [1]; experiment 1 of Table 7): 9.7%
- EAE-associated weight loss, mean (EAE in Lewis rats [1]; experiment 2 of Table 7): 8.7%
- EAE-associated weight loss, mean (EAE in Lewis rats [1]; experiment 3 of Table 7): 8.5%
- Incidence of severe EAE (EAE in Lewis rats [2]; [14]): 4 of 9
- Mean # days with severe EAE (EAE in Lewis rats [2]; [14]): 1.0 ± 1.3 days
- Incidence of EAE (EAE in Lewis rats [2]; [15]): 9 of 9
- Mean cumulative score (EAE in Lewis rats [2]; [15]): 3.4 ± 2.7
- Mean maximal score (EAE in Lewis rats [2]; [15]): 1.4 ± 0.9
- Median cumulative score (EAE in Lewis rats [2]; [15]): 2.5
- Median maximal score (EAE in Lewis rats [2]; [15]): 1.0
- Incidence of EAE (EAE in Lewis rats [2]; [16]): 8 of 8
- Incidence of severe EAE (EAE in Lewis rats [2]; [16]): 4 of 8
- Mean # days with severe EAE (EAE in Lewis rats [2]; [16]): 0.8 ± 1.0 days
- Mean cumulative score (EAE in Lewis rats [2]; [16]): 7.0 ± 5.3
- Mean maximal score (EAE in Lewis rats [2]; [16]): 1.5 ± 0.9
- Median cumulative score (EAE in Lewis rats [2]; [16]): 5.9
- Median maximal score (EAE in Lewis rats [2]; [16]): 1.5
- Mean # days with severe EAE (EAE in Lewis rats [2]; Table 4 Exp. 1, HEK293-derived, 1 nmole days −21, −14, −7, challenge day 0): 0.6 ± 1.3 days
- Incidence of severe EAE (EAE in Lewis rats [2]; Table 4 Exp. 1, HEK293-derived, 1 nmole days −21, −14, −7, challenge day 0, severe = partial or full hindlimb paralysis): 1 of 4
- Incidence of EAE (EAE in Lewis rats [2]; [17]): 4 of 4
- Mean cumulative score (EAE in Lewis rats [2]; [17]): 6.3 ± 6.7
- Mean maximal score (EAE in Lewis rats [2]; [17]): 1.3 ± 1.2
- Median cumulative score (EAE in Lewis rats [2]; [17]): 3.9
- Median maximal score (EAE in Lewis rats [2]; [17]): 1.0
- Mean # days with severe EAE (EAE in Lewis rats [2]; Table 4 Exp. 2, HEK293-derived, 1 nmole days −21, −14, −7, challenge day 0): 1.0 ± 0.7 days
- Incidence of severe EAE (EAE in Lewis rats [2]; Table 4 Exp. 2, HEK293-derived, 1 nmole days −21, −14, −7, challenge day 0, severe = partial or full hindlimb paralysis): 3 of 4
- Incidence of EAE (EAE in Lewis rats [2]; [18]): 4 of 4
- Mean cumulative score (EAE in Lewis rats [2]; [18]): 7.8 ± 4.3
- Mean maximal score (EAE in Lewis rats [2]; [18]): 1.6 ± 0.8
- Median cumulative score (EAE in Lewis rats [2]; [18]): 8.9
- Median maximal score (EAE in Lewis rats [2]; [18]): 2.0
- % mean maximal weight loss (EAE in Lewis rats [2]; [19]): 12.6 ± 3.6%
- Incidence of EAE (EAE in Lewis rats [2]; [19]): 14 of 14
- Incidence of severe EAE (EAE in Lewis rats [2]; [19]): 7 of 14
- Mean # days with severe EAE (EAE in Lewis rats [2]; [19]): 1.0 ± 1.2 days
- Mean cum. score (EAE in Lewis rats [2]; [19]): 7.6 ± 6.2
- Mean maximal score (EAE in Lewis rats [2]; [19]): 1.5 ± 1.1
- Median cum. score (EAE in Lewis rats [2]; [19]): 5.5
- Median maximal score (EAE in Lewis rats [2]; [19]): 1.5
- % mean maximal weight loss (EAE in Lewis rats [2]; [20]): 14.8 ± 1.9%
- Incidence of EAE (EAE in Lewis rats [2]; [20]): 7 of 7
- Incidence of severe EAE (EAE in Lewis rats [2]; [20]): 4 of 7
- Mean # days with severe EAE (EAE in Lewis rats [2]; [20]): 1.1 ± 1.2 days
- Mean cum. score (EAE in Lewis rats [2]; [20]): 8.0 ± 6.3
- Mean maximal score (EAE in Lewis rats [2]; [20]): 1.5 ± 1.0
- Median cum. score (EAE in Lewis rats [2]; [20]): 7.0
- Median maximal score (EAE in Lewis rats [2]; [20]): 2.0
- % mean maximal weight loss (EAE in Lewis rats [2]; [21]): 10.5 ± 3.6%
- Incidence of EAE (EAE in Lewis rats [2]; [21]): 7 of 7
- Incidence of severe EAE (EAE in Lewis rats [2]; [21]): 3 of 7
- Mean # days with severe EAE (EAE in Lewis rats [2]; [21]): 0.9 ± 1.2 days
- Mean cum. score (EAE in Lewis rats [2]; [21]): 7.2 ± 6.4
- Mean maximal score (EAE in Lewis rats [2]; [21]): 1.5 ± 1.4
- Median cum. score (EAE in Lewis rats [2]; [21]): 3.0
- Median maximal score (EAE in Lewis rats [2]; [21]): 0.5
- day of disease onset (EAE in Lewis rats [2]; baculovirus-derived, pretreatment days −21, −14, −7 (not shown)): did not significantly modulate

Source: patent US10363306B2, “Cytokines and neuroantigens for treatment of immune disorders” (East Carolina University, priority 2009, dated 2019)
